Experimental data taken from paper PMC4761961, “In silico selection of an aptamer to estrogen receptor alpha using computational docking employing estrogen response elements as aptamer-alike molecules”.

How the values were obtained:
[1] = molecular target: T1, Estrogen receptor alpha (ERα) (human, UniProt P03372 1-595); assay: ITC; ITC: 10 mM Tris-HCl pH 8.0, 25 °C, 1 µM ERα in cell, 10 µM RNA in syringe; ELISA: 100 nM biotinylated ERaptR4, 2 h; western blot: 1 µM ERaptR4; details: chain copies: 2; hairpin
T1 sequence (P03372 whole entry): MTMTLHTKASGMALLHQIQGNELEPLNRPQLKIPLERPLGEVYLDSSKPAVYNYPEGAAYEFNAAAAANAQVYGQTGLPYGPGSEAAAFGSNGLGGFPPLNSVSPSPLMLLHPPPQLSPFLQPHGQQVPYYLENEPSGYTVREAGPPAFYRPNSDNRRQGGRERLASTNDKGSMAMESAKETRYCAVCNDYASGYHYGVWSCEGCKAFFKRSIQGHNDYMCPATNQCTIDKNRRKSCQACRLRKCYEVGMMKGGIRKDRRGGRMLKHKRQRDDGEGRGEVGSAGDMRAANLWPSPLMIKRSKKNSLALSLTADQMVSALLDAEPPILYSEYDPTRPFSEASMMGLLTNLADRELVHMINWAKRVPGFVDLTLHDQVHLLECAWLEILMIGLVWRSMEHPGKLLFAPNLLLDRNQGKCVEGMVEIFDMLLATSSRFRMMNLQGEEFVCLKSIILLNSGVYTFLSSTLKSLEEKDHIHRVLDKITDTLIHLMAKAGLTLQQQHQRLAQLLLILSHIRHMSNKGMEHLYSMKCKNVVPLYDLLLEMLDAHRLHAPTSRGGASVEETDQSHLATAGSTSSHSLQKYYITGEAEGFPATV

[2] = molecular target: T1, Estrogen receptor alpha (ERα); assay: as above; details: chain copies: 2; hairpin; remark: listed apart in the source

Binder | Ka [1] [M⁻¹] | Ka [2] [M⁻¹]
AGGGUCAGGGCCACCUG (structured_RNA) [ERaptR3] | 5.24e+07 | –
GGGGUCAGCUGUGCCCCG (structured_RNA) [ERaptR18] | 9.91e+07 | –
GGGGUCAAGGUGACCCC (structured_RNA) [ERaptR4] | – | 1.02e+08
GCGGUCACCGUCACCUC (structured_RNA) [ERaptR15] | 9.25e+07 | –
UUGGUCAAGCUGCCCUC (structured_RNA) [ERaptR17] | 1.26e+08 | –
CCAGGUCACAGUGACCUG (structured_RNA) [ERaptR2] | 7.6e+07 | –
CCAGUCAGUCUGAUUAU (structured_RNA) [ERaptR14] | 7.42e+07 | –
CGGGUCAGGGUGACCUC (structured_RNA) [ERaptR8] | 8.88e+07 | –
GGGGUCAAGGUCACCGC (structured_RNA) [ERaptR12] | 8.2e+07 | –
UAGGUCAGUAAGACCUC (structured_RNA) [ERaptR6] | 9.46e+07 | –
AAGGUCACGGUGGCCAC (structured_RNA) [ERaptR5] | 6.82e+07 | –
CAGGUCAAGGCGAUCUU (structured_RNA) [ERaptR13] | 8.96e+07 | –
AGGGUCAUGGUGACCCU (structured_RNA) [ERaptR11] | 8.02e+07 | –
UGGUCAGGCUGGUCUCA (structured_RNA) [ERaptR9] | 9.46e+07 | –
GAGGUCACUGAGACCAU (structured_RNA) [ERaptR1] | 9.2e+07 | –
UUGGUCAGGCUGAUCUC (structured_RNA) [ERaptR16] | 9.4e+07 | –
CGGGUCACGAUGCCCUA (structured_RNA) [ERaptR7] | 4.82e+07 | –
